No end group written: not given here.
T1: CD1d molecule expressed on JAWS2 cells, P11609
T1 chain: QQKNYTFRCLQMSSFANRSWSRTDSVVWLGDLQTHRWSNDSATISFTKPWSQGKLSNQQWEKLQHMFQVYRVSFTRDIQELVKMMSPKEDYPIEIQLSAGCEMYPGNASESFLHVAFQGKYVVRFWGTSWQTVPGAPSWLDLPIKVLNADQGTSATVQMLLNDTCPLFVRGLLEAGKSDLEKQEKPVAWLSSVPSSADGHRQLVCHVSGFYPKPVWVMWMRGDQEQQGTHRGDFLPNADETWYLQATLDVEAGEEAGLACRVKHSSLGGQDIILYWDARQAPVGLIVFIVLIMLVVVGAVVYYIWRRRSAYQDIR


Columns and labels:
[1] = target: T cell receptors of CD4+ NKT cells from the spleen of BALB/c mice given intranasal Der p 1; assay: tetramer staining of spleen CD4+ T cells, facs
[2] = target: T cell receptors of NKT cells among spleen CD4+ T cells of hemophilia A mice immunized with Factor VIII; assay: fluorochrome-labeled tetramer, 30 minutes at 4 C, Facs
[3] = target: T1, CD1d molecule expressed on JAWS2 cells, …

Binder	percentage of cells stained with the tetramers [1] [%]	also measured
FSGVAAT (peptide-MHC, part only; not given: CD1d and beta-2 microglobulin, part only) [CD1d tetramers loaded with peptide of SEQ ID13]	10	
YPYVVIL (peptide-MHC, part only; not given: CD1d and beta-2 microglobulin, part only) [CD1d tetramers loaded with peptide of SEQ ID15]	10	
FCHISSH (peptide-MHC, part only; not given: peptide flanks, CD1d, beta-2 microglobulin, part only, also: loaded on fluorochrome-labelled CD1d tetramers) [CD1d tetramers loaded with peptide of SEQ ID1 (44pept)]		% of NKT cells recognizing the tetramer [2]: < 45%
Der p 1 in natural sequence (SEQ ID17) (protein) TNACSINGNAPAEIDLRQMRTVTPIRMQGGCGSCWAFSGVAATESAYLAYRNQSLDLAEQELVDCASQHGCHGDTIPRGIEYIQHNGVVQESYYRYVAREQSCRRPNAQRFGISNYCQIYPPNVNKIREALAQTHSAIAVIIGIKDLDAFRHYDGRTIIQRDNGYQPNYHAVNIVGYSNAQGVDYWIVRNSWDTNWGDNGYGYFAANIDLMMIEEYPYVVIL		production of cytokines such as IFN-gamma and IL-4 as markers of NKT activation [3]: a significant production of cytokines was present
mutated Der p 1 (SEQ ID16) (protein) TNACSINGNAPAEIDLRQMRTVTPIRMQGGCGSCWASSGVAATESAYLAYRNQSLDLAEQELVDCASQHGCHGDTIPRGIEYIQHNGVVQESYYRYVAREQSCRRPNAQRFGISNYCQIYPPNVNKIREALAQTSSAIAVIIGIKDLDAFRHYDGRTIIQRDNGYQPNYHAVNIVGYSNAQGVDYWIVRNSWDTNWGDNGYGYFAANIDLMMIEESPYVVIL		production of IFN-gamma and IL-4 taken as an indication of NKT activation [3]: NKT cells obtained from mice immunized with natural sequence Der p 1 failed to be activated when incubated in the presence of JAWS2 cells loaded with mutated Der p 1
HSAIAAVI (peptide-MHC, part only; not given: CD1d and beta-2 microglobulin, part only) [CD1d tetramers loaded with peptide of SEQ ID14]	10	

Source: patent publication US20180009843A1
